Assay results as given in article PMC3079743.

Test system: TRF2DBD+L
Test: differential centrifugation
Conditions: self-association; agarose gel binding detected at 10-fold lower concentration; EMSA buffer composition not in the material (AFM incubations: without Mg2+ and KCl, 30 min, room temperature); strand insertion assay: 50 mM HEPES, 100 mM …

**Q.** “pRST5 2 kb telomeric fragment, histone-free (Tel DNA)” was tested. Which binding signal (% sedimented at up to 1 uM) did it give?
**A.** 20
